Reference: patent US9938505B2, “Polypeptide composition and culture method for pluripotent stem cell using same” (FUJIFILM Corporation, priority 2013, dated 2018)
One block for each molecule: values may come before it.

How the values were obtained:
[1] = Evaluation of adsorbability with respect to culture dish (OPA/NAC fluorescence); type: physicochemical; conditions: FIG. 1
Protocol: Each of the polypeptides obtained as above was diluted with a predetermined buffer such that they could be added to wells at a predetermined final concentration of 0 pmol/cm^2 to 200 pmol/cm^2. Thereafter, each of the polypeptides was added in an amount of 64 μL to a plasma-treated 96-well plate made of polystyrene (Tissue Culture-Treated, Falcon). Each of the polypeptides was allowed to adsorbed onto the plate by being incubated for 2 hours at 37° C., and then the wells were washed twice with PBS, thereby obtaining surfaces coated with each of the polypeptides of RCP-1 to RCP-16.
Among the surfaces coated with each of the polypeptides obtained as above, the surfaces coated with RCP-1 and RCP-11 to RCP-16 were applied with 64 μL of a borate buffer and 64 μL of 1 N NaOH, followed by incubation for 24 hours at 80° C. and 100% humidity. […] After incubation for 30 minutes at 40° C., the fluorescence intensity thereof was measured by using an ENVISION MULTILABEL COUNTER (trade name, PerkinElmer Inc.) (excitation 355 nm/fluorescence 486 nm). […]

iPS cells = assay: Cell growth property evaluation 2 (ALP activity, 72 hours); type: cell-based, human; conditions: for Number of cells (%/LN-511): same method as Cell growth property evaluation 2, Table 13
Protocol: Each of the polypeptide liquids was added to the respective wells of a plasma-treated 96-well plate (BD Falcon) made of polystyrene having a plasma-treated cell culture surface, and the plate was held as it is for 2 hours at 37° C. such that the polypeptide was adsorbed thereonto, thereby obtaining a peptide-treated 96-well plate having a polypeptide-coated surface. Into the respective wells of the obtained peptide-treated 96-well plate, iPS cells suspended in a medium obtained by mixing TeSR2 (Stemcell Technologies Inc.) with NUTRISTEM (registered trademark, Bio Industries Inc.) at 1:1 (volume ratio) were seeded at a cell density of 10,000 cells/well. After 72 hours of culture, nonadhesive cells were washed off with PBS, and only adhesive cells were immobilized using 4% by mass paraformaldehyde (Wako Pure Chemical Industries, Ltd.). By using an ATTOPHOS (registered trademark) AP FLUORESCENT SUBSTRATE SYSTEM (Promega Corporation), the ALP activity was calculated, and from the calibration curve, the number of undifferentiated iPS cells having the ALP activity was calculated. In Table 11, the cell growth rate is expressed as a ratio calculated by regarding the number of cells after 72 hours of culture using recombinant laminin as being 100%. n=3.
By the same method as described in <Cell growth property evaluation 2> of Example 3, the cell growth properties of the polypeptide compositions II-1 and II-2 was evaluated. […] That is, it was understood that the polypeptide in which Cys 25, Cys 31, and the intramolecular cross-linking structure bind with each other is excellent in the cell growth activity.

[2] = target: T1, Plasminogen Activator Inhibitor-1 (PAI-1) (Homo sapiens, UniProt P05121); assay: Evaluation of PAI-1 binding properties (plate assay, Scatchard plot); conditions: for Binding constant: KA from slope of Scatchard plot, PAI-1 170 nM to 2.6 nM, RCP-5 immobilized from 100 μg/ml
T1 construct: purchased R & D Systems Inc 1786-PI
Protocol: By using a Plasminogen Activator Inhibitor-1 (PAI-1) known to bind with a polypeptide having a structure in which Cys 25 and Cys 31 are cross-linked to each other, detection of the cross-linking structure of Cys 25 and Cys 31 was tried.
The polypeptide compositions II-1 and II-2 (100 μg/ml) were added to a flat-bottomed black 96-well plate (half-Area) made of polystyrene at 64 μL/well. The entirety of the plate was covered with a sealing film (Funakoshi Co., Ltd.) and left to stand at 4° C. such that RCP-5 in each of the polypeptide compositions was immobilized. After 12 hours, the liquid in the wells was discarded, and TBS (NIPPON GENE CO., LTD.) containing 5% Bovine Serum Albumin (Sigma-Aldrich Co, LLC.) was added thereto at 150 μL/well. The plate was left to stand for 1 hour at 37° C., and then the liquid in the wells was discarded. Furthermore, BLOCKER CASEIN (trade name, Thermo Scientific Inc.) was added thereto at 150 μL/well, and the plate was left to stand at 37° C. as above so as to performing blocking. After 1 hour, TBS (TBST) containing 0.05% Tween 20 was added thereto at 150 μL/well, and the liquid was continuously discarded from the wells. By performing the above operation 4 times in total, the inside of the wells was washed.
Then, a solution of recombinant PAI-1 (catalog number 1786-PI, R & D Systems Inc) serially diluted with TBS from 170 nM to 2.6 nM at the same factor was added to the respective well at 50 μL/well, and the plate was left to stand at 37° C. After 1 hour, the PAI-1 solution was discarded from the wells, and the wells were washed with TBST 4 times in total by the same method as described above, thereby removing unbound PAI-1. […]
Furthermore, an undiluted solution of HRP-labeled anti-goat IgG antibodies (catalog number 81-1620, Life Technologies) was diluted 7,500-fold with TBS and added to the wells at 100 μL/well. […] The excitation wavelength and the fluorescence wavelength were set to be 330 nm and 410 nm respectively, and the binding of RCP-5 to PAI-1 was measured as a relative fluorescence unit by using ENVISION (trade name, PerkinElmer Inc). […]

T1 sequence (P05121 24-402): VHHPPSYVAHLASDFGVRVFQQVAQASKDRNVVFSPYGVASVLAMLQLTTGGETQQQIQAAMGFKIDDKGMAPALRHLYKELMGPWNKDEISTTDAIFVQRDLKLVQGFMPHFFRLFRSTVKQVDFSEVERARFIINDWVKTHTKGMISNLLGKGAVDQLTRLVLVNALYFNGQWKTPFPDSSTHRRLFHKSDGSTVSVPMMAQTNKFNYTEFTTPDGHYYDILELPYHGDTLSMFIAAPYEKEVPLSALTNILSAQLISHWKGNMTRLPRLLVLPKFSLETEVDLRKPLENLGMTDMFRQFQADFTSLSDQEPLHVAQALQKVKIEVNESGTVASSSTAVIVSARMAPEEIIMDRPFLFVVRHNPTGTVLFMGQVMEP

Molecule: RCP-14: recombinant polypeptide SEQ ID NO: 27; human vitronectin positions 1-55 (GPLGDQESCKGRCTEGFNVDKKCQCDELCSYYQSCCTDYTAECKPQVTRGDVFTMPEDE; Synthetic peptide RCP-14)
amount adsorbed onto the plate, as fraction of the amount of the polypeptide including SEQ ID NO: 3 [1]: about ¼

Binding constant [2]: 0.22 | binding constant of PAI-1 (in words) ([2]; comparison of compositions): greater
B1: II-1: polypeptide composition containing RCP-5 after reduction treatment with Tris(2-carboxyethyl)phosphine Hydrochloride and dialysis (protein)
chain: MDQESCKGRCTEGFNVDKKCQCDELCSYYQSCCTDYTAECKPQVTRGDVFTMPEDEFWGRTSAGTRQPQFISRDWHGVPGQVDAAMAGRIYISGMAPRPSLAKKQRFRHRNRKGYRSQRGHSRGRNQN
cell growth properties (in words) (iPS cells; comparison of compositions): better than that of the polypeptide composition II-2 | Number of cells (%/LN-511) (iPS cells): 107 ± 47 %/LN-511

Binding constant [2]: 0.06
B2: II-2: comparative polypeptide composition containing RCP-5, frozen at −80° C. without being treated, then dialyzed (protein)
chain: B1 chain
Number of cells (%/LN-511) (iPS cells): 79 ± 5 %/LN-511

B3: RCP-13: recombinant polypeptide SEQ ID NO: 26; human vitronectin positions 1-55, 56-130 (protein)
chain: GPLGDQESCKGRCTEGFNVDKKCQCDELCSYYQSCCTDYTAECKPQVTRGDVFTMPEDEYTVYDDGEEKNNATVHEQVGGPSLTSDLQAQSKGNPEQTPVLKPEEEAPAPEVGASKPEGIDSRPETLHPGRPQP
modifications: Synthetic peptide RCP-13
amount adsorbed onto the plate, as fraction of the amount of the polypeptide including SEQ ID NO: 3 [1]: about ¼
